# Laboratory results as given in patent publication US20240018502A1.
# Target: plasma purified human complement protein C3 (human) (UniProt P01024)
# Assay: cell-based or functional assay
# Sequence of plasma purified human complement protein C3 (human) (P01024 23-667, chain 1 of 2): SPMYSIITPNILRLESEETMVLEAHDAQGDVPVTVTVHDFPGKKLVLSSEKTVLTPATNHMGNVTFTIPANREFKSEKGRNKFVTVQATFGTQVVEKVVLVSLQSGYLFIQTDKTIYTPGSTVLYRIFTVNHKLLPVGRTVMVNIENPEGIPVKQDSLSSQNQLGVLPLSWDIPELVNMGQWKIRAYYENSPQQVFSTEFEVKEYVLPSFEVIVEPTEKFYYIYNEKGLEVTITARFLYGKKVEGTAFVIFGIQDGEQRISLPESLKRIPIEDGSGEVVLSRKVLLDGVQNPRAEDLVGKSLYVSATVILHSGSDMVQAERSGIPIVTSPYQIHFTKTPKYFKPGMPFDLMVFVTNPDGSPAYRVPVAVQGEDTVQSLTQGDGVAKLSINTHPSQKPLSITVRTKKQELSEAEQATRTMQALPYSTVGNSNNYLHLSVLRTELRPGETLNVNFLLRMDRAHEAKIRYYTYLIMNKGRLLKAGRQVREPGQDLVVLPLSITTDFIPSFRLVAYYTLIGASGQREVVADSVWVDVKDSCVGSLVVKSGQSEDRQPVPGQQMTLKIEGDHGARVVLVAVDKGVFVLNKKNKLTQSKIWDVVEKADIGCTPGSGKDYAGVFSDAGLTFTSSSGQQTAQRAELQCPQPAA
# Sequence of plasma purified human complement protein C3 (human) (P01024 672-1663, chain 2 of 2): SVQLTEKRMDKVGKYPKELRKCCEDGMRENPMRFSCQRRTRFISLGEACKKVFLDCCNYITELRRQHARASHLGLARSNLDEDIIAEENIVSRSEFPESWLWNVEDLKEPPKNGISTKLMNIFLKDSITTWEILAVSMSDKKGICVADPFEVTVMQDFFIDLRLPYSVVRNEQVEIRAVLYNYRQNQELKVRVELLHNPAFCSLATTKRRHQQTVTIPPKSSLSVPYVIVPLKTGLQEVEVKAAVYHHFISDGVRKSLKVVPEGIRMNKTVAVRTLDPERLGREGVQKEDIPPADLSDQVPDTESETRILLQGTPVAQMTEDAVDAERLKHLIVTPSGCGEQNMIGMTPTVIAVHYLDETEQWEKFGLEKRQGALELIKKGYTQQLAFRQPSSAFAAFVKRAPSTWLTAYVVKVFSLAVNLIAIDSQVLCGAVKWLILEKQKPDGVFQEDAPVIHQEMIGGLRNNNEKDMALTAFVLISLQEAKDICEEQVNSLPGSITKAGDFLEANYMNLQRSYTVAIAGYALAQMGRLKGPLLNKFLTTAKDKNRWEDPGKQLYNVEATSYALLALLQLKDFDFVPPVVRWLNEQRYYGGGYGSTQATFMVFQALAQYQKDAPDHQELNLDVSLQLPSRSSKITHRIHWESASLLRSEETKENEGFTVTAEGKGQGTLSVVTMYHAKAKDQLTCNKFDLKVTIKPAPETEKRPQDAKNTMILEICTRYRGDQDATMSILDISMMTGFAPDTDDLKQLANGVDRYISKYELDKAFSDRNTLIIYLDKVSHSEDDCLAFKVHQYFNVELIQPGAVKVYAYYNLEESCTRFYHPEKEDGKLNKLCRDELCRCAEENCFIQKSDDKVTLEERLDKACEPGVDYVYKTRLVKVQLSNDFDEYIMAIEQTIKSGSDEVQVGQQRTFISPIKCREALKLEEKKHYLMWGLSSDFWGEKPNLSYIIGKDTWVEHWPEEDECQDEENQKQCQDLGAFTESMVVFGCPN
Binder,EC50 hC3 cleavage [nM],EC50 of hC3 cleavage [nM]
MTSP-1 protease domain I41S/D96K/F97G/ins97aV/T98P/F99L/C122S/Q175H/Q192D (enzyme) VVGGTDADEGEWPWQVSLHALGQGHSCGASLISPNWLVSAAHCYIDDRGFRYSDPTQWTAFLGLHDQSQRSAPGVQERRLKRIISHPFFNKGVPLDYDIALLELEKPAEYSSMVRPISLPDASHVFPAGKAIWVTGWGHTQYGGTGALILQKGEIRVINQTTCENLLPQHITPRMMCVGFLSGGVDSCDGDSGGPLSSVEADGRIFQAGVVSWGDGCAQRNKPGVYTRLPLFRDWIKENTGV,195,
MTSP-1 I41S/D96K/F97G/ins97aV/T98P/F99L/C122S/Q175L/Q192D (enzyme) VVGGTDADEGEWPWQVSLHALGQGHSCGASLISPNWLVSAAHCYIDDRGFRYSDPTQWTAFLGLHDQSQRSAPGVQERRLKRIISHPFFNKGVPLDYDIALLELEKPAEYSSMVRPISLPDASHVFPAGKAIWVTGWGHTQYGGTGALILQKGEIRVINQTTCENLLPQLITPRMMCVGFLSGGVDSCDGDSGGPLSSVEADGRIFQAGVVSWGDGCAQRNKPGVYTRLPLFRDWIKENTGV,,68.6
MTSP-1 Q38H/I41S/D96K/F97G/ins97aV/T98P/F99L/C122S/Q192D (enzyme) VVGGTDADEGEWPWQVSLHALGHGHSCGASLISPNWLVSAAHCYIDDRGFRYSDPTQWTAFLGLHDQSQRSAPGVQERRLKRIISHPFFNKGVPLDYDIALLELEKPAEYSSMVRPISLPDASHVFPAGKAIWVTGWGHTQYGGTGALILQKGEIRVINQTTCENLLPQQITPRMMCVGFLSGGVDSCDGDSGGPLSSVEADGRIFQAGVVSWGDGCAQRNKPGVYTRLPLFRDWIKENTGV,,108
MTSP-1 Q38H/I41S/D60bT/F60eS/Y60gW/D96K/F97G/ins97aV/T98P/F99L/C122S/G151H/Q192D (enzyme) VVGGTDADEGEWPWQVSLHALGHGHSCGASLISPNWLVSAAHCYIDTRGSRWSDPTQWTAFLGLHDQSQRSAPGVQERRLKRIISHPFFNKGVPLDYDIALLELEKPAEYSSMVRPISLPDASHVFPAGKAIWVTGWGHTQYGGTHALILQKGEIRVINQTTCENLLPQQITPRMMCVGFLSGGVDSCDGDSGGPLSSVEADGRIFQAGVVSWGDGCAQRNKPGVYTRLPLFRDWIKENTGV,,19.9
MTSP-1 protease domain I41G/F97R/F99L/C122S/G151N/Q175L/Q192S/D217V (enzyme) VVGGTDADEGEWPWQVSLHALGQGHGCGASLISPNWLVSAAHCYIDDRGFRYSDPTQWTAFLGLHDQSQRSAPGVQERRLKRIISHPFFNDRTLDYDIALLELEKPAEYSSMVRPISLPDASHVFPAGKAIWVTGWGHTQYGGTNALILQKGEIRVINQTTCENLLPQLITPRMMCVGFLSGGVDSCSGDSGGPLSSVEADGRIFQAGVVSWGVGCAQRNKPGVYTRLPLFRDWIKENTGV,4.18,
MTSP-1 protease domain I41D/F97T/F99M/C122S/Q192V/D217M (enzyme) VVGGTDADEGEWPWQVSLHALGQGHDCGASLISPNWLVSAAHCYIDDRGFRYSDPTQWTAFLGLHDQSQRSAPGVQERRLKRIISHPFFNDTTMDYDIALLELEKPAEYSSMVRPISLPDASHVFPAGKAIWVTGWGHTQYGGTGALILQKGEIRVINQTTCENLLPQQITPRMMCVGFLSGGVDSCVGDSGGPLSSVEADGRIFQAGVVSWGMGCAQRNKPGVYTRLPLFRDWIKENTGV,63.8,

# The next lines start with the values.
EC50 hC3 cleavage [nM],EC50 of hC3 cleavage [nM],Binder
49.7,,MTSP-1 protease domain I41S/ins97aV/C122S/N164D/Q192G/R235L (enzyme) VVGGTDADEGEWPWQVSLHALGQGHSCGASLISPNWLVSAAHCYIDDRGFRYSDPTQWTAFLGLHDQSQRSAPGVQERRLKRIISHPFFNDFVTFDYDIALLELEKPAEYSSMVRPISLPDASHVFPAGKAIWVTGWGHTQYGGTGALILQKGEIRVIDQTTCENLLPQQITPRMMCVGFLSGGVDSCGGDSGGPLSSVEADGRIFQAGVVSWGDGCAQRNKPGVYTRLPLFLDWIKENTGV
34.1,,MTSP-1 protease domain I41S/Y59F/ins97aV/C122S/Q192G/N223D (enzyme) VVGGTDADEGEWPWQVSLHALGQGHSCGASLISPNWLVSAAHCFIDDRGFRYSDPTQWTAFLGLHDQSQRSAPGVQERRLKRIISHPFFNDFVTFDYDIALLELEKPAEYSSMVRPISLPDASHVFPAGKAIWVTGWGHTQYGGTGALILQKGEIRVINQTTCENLLPQQITPRMMCVGFLSGGVDSCGGDSGGPLSSVEADGRIFQAGVVSWGDGCAQRDKPGVYTRLPLFRDWIKENTGV
32.3,,MTSP-1 protease domain I41S/D96K/F97G/ins97aV/T98P/F99L/C122S/Q192V (enzyme) VVGGTDADEGEWPWQVSLHALGQGHSCGASLISPNWLVSAAHCYIDDRGFRYSDPTQWTAFLGLHDQSQRSAPGVQERRLKRIISHPFFNKGVPLDYDIALLELEKPAEYSSMVRPISLPDASHVFPAGKAIWVTGWGHTQYGGTGALILQKGEIRVINQTTCENLLPQQITPRMMCVGFLSGGVDSCVGDSGGPLSSVEADGRIFQAGVVSWGDGCAQRNKPGVYTRLPLFRDWIKENTGV
46.4,,MTSP-1 protease domain I41S/ins97aV/C122S/N164D/Q192G/R235H (enzyme) VVGGTDADEGEWPWQVSLHALGQGHSCGASLISPNWLVSAAHCYIDDRGFRYSDPTQWTAFLGLHDQSQRSAPGVQERRLKRIISHPFFNDFVTFDYDIALLELEKPAEYSSMVRPISLPDASHVFPAGKAIWVTGWGHTQYGGTGALILQKGEIRVIDQTTCENLLPQQITPRMMCVGFLSGGVDSCGGDSGGPLSSVEADGRIFQAGVVSWGDGCAQRNKPGVYTRLPLFHDWIKENTGV
29.1,,MTSP-1 protease domain I41S/Y59F/F97Y/ins97aV/C122S/Q192G (enzyme) VVGGTDADEGEWPWQVSLHALGQGHSCGASLISPNWLVSAAHCFIDDRGFRYSDPTQWTAFLGLHDQSQRSAPGVQERRLKRIISHPFFNDYVTFDYDIALLELEKPAEYSSMVRPISLPDASHVFPAGKAIWVTGWGHTQYGGTGALILQKGEIRVINQTTCENLLPQQITPRMMCVGFLSGGVDSCGGDSGGPLSSVEADGRIFQAGVVSWGDGCAQRNKPGVYTRLPLFRDWIKENTGV
3.19,,MTSP-1 protease domain I41S/F99L/C122S/G151N/Q175M/Q192G/D217V (enzyme) VVGGTDADEGEWPWQVSLHALGQGHSCGASLISPNWLVSAAHCYIDDRGFRYSDPTQWTAFLGLHDQSQRSAPGVQERRLKRIISHPFFNDFTLDYDIALLELEKPAEYSSMVRPISLPDASHVFPAGKAIWVTGWGHTQYGGTNALILQKGEIRVINQTTCENLLPQMITPRMMCVGFLSGGVDSCGGDSGGPLSSVEADGRIFQAGVVSWGVGCAQRNKPGVYTRLPLFRDWIKENTGV
11.9,,MTSP-1 protease domain I41S/F97L/F99L/C122S/G151N/Q192G/D217V (enzyme) VVGGTDADEGEWPWQVSLHALGQGHSCGASLISPNWLVSAAHCYIDDRGFRYSDPTQWTAFLGLHDQSQRSAPGVQERRLKRIISHPFFNDLTLDYDIALLELEKPAEYSSMVRPISLPDASHVFPAGKAIWVTGWGHTQYGGTNALILQKGEIRVINQTTCENLLPQQITPRMMCVGFLSGGVDSCGGDSGGPLSSVEADGRIFQAGVVSWGVGCAQRNKPGVYTRLPLFRDWIKENTGV
11.2,,MTSP-1 protease domain I41S/F97S/F99L/C122S/G151N/Q175L/Q192A/D217L (enzyme) VVGGTDADEGEWPWQVSLHALGQGHSCGASLISPNWLVSAAHCYIDDRGFRYSDPTQWTAFLGLHDQSQRSAPGVQERRLKRIISHPFFNDSTLDYDIALLELEKPAEYSSMVRPISLPDASHVFPAGKAIWVTGWGHTQYGGTNALILQKGEIRVINQTTCENLLPQLITPRMMCVGFLSGGVDSCAGDSGGPLSSVEADGRIFQAGVVSWGLGCAQRNKPGVYTRLPLFRDWIKENTGV
24.2,,MTSP-1 protease domain I41T/F97L/F99L/C122S/G151N/Q175S/Q192S/D217W (enzyme) VVGGTDADEGEWPWQVSLHALGQGHTCGASLISPNWLVSAAHCYIDDRGFRYSDPTQWTAFLGLHDQSQRSAPGVQERRLKRIISHPFFNDLTLDYDIALLELEKPAEYSSMVRPISLPDASHVFPAGKAIWVTGWGHTQYGGTNALILQKGEIRVINQTTCENLLPQSITPRMMCVGFLSGGVDSCSGDSGGPLSSVEADGRIFQAGVVSWGWGCAQRNKPGVYTRLPLFRDWIKENTGV
